Consider 16 molecules from doi:10.1101/2025.11.17.685403.

Read-outs that look alike come from different tables or passages of the source.

Experiment in all cases: fluorescence polarization
For data set [1], the target named is T1, RFS1 (cShu subunit);RIP1 (cShu subunit);SWS1 (cShu subunit) (Caenorhabditis elegans;Caenorhabditis …, UniProt P34348;Q21621;Q8MYM5 1-245;1-209;1-191, ||).
T1 sequence 1: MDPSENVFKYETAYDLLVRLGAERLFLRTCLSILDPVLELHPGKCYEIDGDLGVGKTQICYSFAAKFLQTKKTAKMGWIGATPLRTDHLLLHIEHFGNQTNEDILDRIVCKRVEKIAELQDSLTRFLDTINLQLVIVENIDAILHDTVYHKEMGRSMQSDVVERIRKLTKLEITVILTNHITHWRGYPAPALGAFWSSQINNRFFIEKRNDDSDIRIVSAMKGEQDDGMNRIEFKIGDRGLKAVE
T1 sequence 2: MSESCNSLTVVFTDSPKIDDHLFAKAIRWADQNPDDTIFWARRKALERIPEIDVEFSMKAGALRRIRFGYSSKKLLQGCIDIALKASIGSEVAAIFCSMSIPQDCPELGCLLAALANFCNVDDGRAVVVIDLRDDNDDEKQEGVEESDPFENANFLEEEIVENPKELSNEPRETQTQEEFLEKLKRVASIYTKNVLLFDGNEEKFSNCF
T1 sequence 3: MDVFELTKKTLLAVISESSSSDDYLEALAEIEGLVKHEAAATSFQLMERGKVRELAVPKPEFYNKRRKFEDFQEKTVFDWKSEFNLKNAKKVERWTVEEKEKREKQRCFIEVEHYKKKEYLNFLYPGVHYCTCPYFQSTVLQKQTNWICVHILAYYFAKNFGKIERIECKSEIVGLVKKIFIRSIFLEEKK

Data set [2] deals with T2, RFS1 E138A (Walker B);RIP1 (cShu subunit);SWS1 (cShu subunit) (Caenorhabditis elegans;Caenorhabditis …, UniProt P34348;Q21621;Q8MYM5 1-245;1-209;1-191, E138A||).
T2 sequence 1: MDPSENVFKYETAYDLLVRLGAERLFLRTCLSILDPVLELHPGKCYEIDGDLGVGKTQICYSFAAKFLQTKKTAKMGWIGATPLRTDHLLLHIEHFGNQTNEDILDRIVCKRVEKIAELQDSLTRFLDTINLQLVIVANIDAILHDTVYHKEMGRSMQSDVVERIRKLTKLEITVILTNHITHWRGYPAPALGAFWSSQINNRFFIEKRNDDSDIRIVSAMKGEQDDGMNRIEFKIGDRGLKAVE
T2 sequence 2: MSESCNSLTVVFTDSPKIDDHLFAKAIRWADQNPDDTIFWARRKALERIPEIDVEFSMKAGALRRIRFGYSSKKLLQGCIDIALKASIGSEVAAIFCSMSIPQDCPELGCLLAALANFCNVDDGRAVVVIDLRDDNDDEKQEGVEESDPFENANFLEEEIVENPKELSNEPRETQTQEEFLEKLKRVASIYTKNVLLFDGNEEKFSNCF
T2 sequence 3: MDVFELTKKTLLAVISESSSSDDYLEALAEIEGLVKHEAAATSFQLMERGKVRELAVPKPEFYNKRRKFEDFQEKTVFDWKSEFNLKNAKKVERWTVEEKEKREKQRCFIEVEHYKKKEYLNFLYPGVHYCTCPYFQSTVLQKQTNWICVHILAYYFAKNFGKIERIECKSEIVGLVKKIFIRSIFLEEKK

Data set [3] deals with T1, RFS1 (cShu subunit);RIP1 (cShu …). The source holds these as a separate data set.
Data set [4] addresses T3, RFS1 K56A (Walker A);RIP1 (cShu subunit);SWS1 (cShu subunit) (Caenorhabditis elegans;Caenorhabditis …, UniProt P34348;Q21621;Q8MYM5 1-245;1-209;1-191, K56A||).
T3 sequence 1: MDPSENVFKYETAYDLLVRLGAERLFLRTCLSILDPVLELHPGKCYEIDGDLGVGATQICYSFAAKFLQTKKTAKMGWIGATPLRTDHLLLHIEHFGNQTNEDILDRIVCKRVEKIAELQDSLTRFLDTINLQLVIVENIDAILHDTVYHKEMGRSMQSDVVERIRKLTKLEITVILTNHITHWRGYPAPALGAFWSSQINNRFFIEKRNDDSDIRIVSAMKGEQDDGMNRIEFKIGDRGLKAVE
T3 sequence 2: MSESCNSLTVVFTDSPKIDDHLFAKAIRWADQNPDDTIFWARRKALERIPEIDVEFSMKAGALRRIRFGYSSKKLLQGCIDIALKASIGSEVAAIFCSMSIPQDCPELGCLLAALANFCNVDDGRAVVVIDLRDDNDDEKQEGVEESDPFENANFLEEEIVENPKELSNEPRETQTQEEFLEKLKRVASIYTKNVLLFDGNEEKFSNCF
T3 sequence 3: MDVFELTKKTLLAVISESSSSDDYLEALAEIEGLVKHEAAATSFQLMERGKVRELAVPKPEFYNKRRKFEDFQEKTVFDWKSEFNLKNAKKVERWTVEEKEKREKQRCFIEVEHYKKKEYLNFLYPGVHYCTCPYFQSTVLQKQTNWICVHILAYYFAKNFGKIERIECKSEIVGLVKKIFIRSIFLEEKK

The target of data set [5] is T2, RFS1 E138A (Walker B);RIP1 (cShu …). The source holds these as a separate data set.
The target in data set [6] is T1, RFS1 (cShu subunit);RIP1 (cShu …). This is another data set of the same source.
In data set [7] the target is T3, RFS1 K56A (Walker A);RIP1 (cShu …). The source holds these as a separate data set.
The target of data set [8] is T2, RFS1 E138A (Walker B);RIP1 (cShu …). This is another data set of the same source.
In data set [9] the target is T1, RFS1 (cShu subunit);RIP1 (cShu …). This is another data set of the same source.
The target of data set [10] is T3, RFS1 K56A (Walker A);RIP1 (cShu …). This is another data set of the same source.

B1: ss31 (ssDNA)
DNA: ACTGCCCTTACAGCACAGCGGTTTTTTTTTT
Take B1: the Kd (usually a measure of binding affinity in units of concentration) in data set [1] stood at 3200 ± 300 nM.

B2: 3'-overhang (10 nt) (mixed)
DNA 1: ACTGCCCTTACAGCACAGCGGTTTTTTTTTT
DNA 2: CCGCTGTGCTGTAAGGGCAGT
Take B2: in data set [1], the binding result is on record as “no binding”.

B3: Fork (10 nt) (mixed)
DNA 1: ACTGCCCTTACAGCACAGCGGTTTTTTTTTT
DNA 2: TTTTTTTTTTCCGCTGTGCTGTAAGGGCAGT
Regarding B3, the binding result in [1] was “no binding”.

B4: 5'-overhang (20 nt) (mixed)
DNA 1: TTTTTTTTTTTTTTTTTTTTCTTGACAAGCTTGCGCACT
DNA 2: AGTGCGCAAGCTTGTCAAG
B4: the Kd amounted to 760 ± 40 nM in [2]; 695 ± 3 nM in [3]; 3900 ± 400 nM in data set [4]; 3900 ± 100 nM in data set [5]; 4200 ± 500 nM in data set [6]; 4500 ± 300 nM in data set [7]. Besides, the Kd in data set [8] was found to be 1200 ± 100 nM; in [9], 3800 ± 300 nM; in data set [10], 4700 ± 200 nM.

B5: ds39 (dsDNA)
DNA 1: TTTTTTTTTTTTTTTTTTTTCTTGACAAGCTTGCGCACT
DNA 2: AGTGCGCAAGCTTGTCAAGAAAAAAAAAAAAAAAAAAAA
With B5, the binding result in data set [5], in data set [6] and in data set [7] was “no binding” in each case.

B6: ss39 (ssDNA)
DNA: TTTTTTTTTTTTTTTTTTTTCTTGACAAGCTTGCGCACT
On to B6, for which the Kd in [2] turned out to be 1000 ± 20 nM; in data set [3] it was 1000 ± 100 nM; in data set [4], 3000 ± 100 nM; in data set [5] it was 2700 ± 200 nM; in [6], 2900 ± 100 nM; in data set [7] it was 3300 ± 200 nM. Moreover, the results for the Kd in [8], in [9] and in data set [10] were 2200 ± 100 nM, 2900 ± 300 nM and 3300 ± 100 nM, respectively.

B7: Fork (20 nt) (mixed)
DNA 1: TTTTTTTTTTTTTTTTTTTTCTTGACAAGCTTGCGCACT
DNA 2: AGTGCGCAAGCTTGTCAAGGCACTTTTTTTTTTTTTTTT
In the case of B7, the Kd in data set [2] was 140 ± 10 nM; in data set [3] it was 210 ± 20 nM; in data set [4], 2680 ± 80 nM; in data set [5], 1900 ± 200 nM; in data set [6], 2800 ± 300 nM; in data set [7], 2500 ± 300 nM. Moreover, the values for the Kd in [8], in data set [9] and in data set [10] were 380 ± 30 nM, 500 ± 20 nM and 2500 ± 100 nM, respectively.

B8: 5'-overhang (10 nt) (mixed)
DNA 1: ACTGCCCTTACAGCACAGCGG
DNA 2: TTTTTTTTTTCCGCTGTGCTGTAAGGGCAGT
B8: in data set [1], the binding result is listed as “no binding”.

B9: 3'-overhang (5 nt) (mixed)
DNA 1: ACTGCCCTTACAGCACAGCGGTTTTT
DNA 2: CCGCTGTGCTGTAAGGGCAGT
B9: in data set [1], the binding result is “no binding”.

B10: 5'-overhang (5 nt) (mixed)
DNA 1: ACTGCCCTTACAGCACAGCGG
DNA 2: TTTTTCCGCTGTGCTGTAAGGGCAGT
Consider B10, for which, in data set [1], the binding result is given as “no binding”.

B11: ss26 (ssDNA)
DNA: ACTGCCCTTACAGCACAGCGGTTTTT
Regarding B11, the Kd in data set [1] is 4200 ± 400 nM.

B12: Fork (5 nt) (mixed)
DNA 1: ACTGCCCTTACAGCACAGCGGTTTTT
DNA 2: TTTTTCCGCTGTGCTGTAAGGGCAGT
In the case of B12, in data set [1], the binding result is listed as “no binding”.

B13: ds21 (dsDNA)
DNA 1: ACTTACAGCACAGCGGTTTTT
DNA 2: AAAAACCGCTGTGCTGTAAGT
Turning to B13, the binding result in data set [1] is given as “no binding”.

B14: ss21 (ssDNA)
DNA: ACTTACAGCACAGCGGTTTTT
As for B14, the binding result in [1] is “no binding”.

B15: 3'-overhang (20 nt) (mixed)
DNA 1: CTTGACAAGCTTGCGCACT
DNA 2: AGTGCGCAAGCTTGTCAAGGCACTTTTTTTTTTTTTTTT
With B15, the binding result in data set [6] is listed as “no binding”.

B16: ds26 (dsDNA)
DNA 1: ACTGCCCTTACAGCACAGCGGTTTTT
DNA 2: AAAAACCGCTGTGCTGTAAGGGCAGT
As to B16, the binding result in data set [1] is reported as “no binding”.
